The values below come from patent US20220291215A1.

Assay [1] concerns the target DQ6 (DQA1*01:02-DQB1*06:02)-restricted influenza virus HA-specific TCR (DM2). Kind of assay: flow cytometry, TCR-transduced primary T cells. (In general: In flow cytometry, cells or beads pass a laser one at a time.)
In assay [2] the target is DR1-restricted TCR HA1.7.
The target of assay [3] is memory CD4+ T cells from DP4+ donors, unstimulated (a small subset; their TCRs). In words: flow cytometry ex vivo; 160045 evts in the dimer- CD4+ gate.
Assay [4] has the same target. Kind of assay: flow cytometry ex vivo; 122665 evts in the dimer- CD4+ gate.
Assay [5] shares this target. In words: flow cytometry ex vivo; 50227 evts in the dimer- CD4+ gate.
The target is the same in assay [6]. Kind of assay: flow cytometry ex vivo; 71402 evts in the dimer- CD4+ gate.
The target is the same in assay [7]. Kind of assay: flow cytometry ex vivo; 80783 evts in the dimer- CD4+ gate.
Assay [8] shares this target. Kind of assay: flow cytometry ex vivo; 122436 evts in the dimer- CD4+ gate.
The target is the same in assay [9]. In words: flow cytometry ex vivo; 49894 evts in the dimer- CD4+ gate.
Assay [10] has the same target. Kind of assay: flow cytometry ex vivo; 73637 evts in the dimer- CD4+ gate.
Assay [11] has the same target. Kind of assay: flow cytometry ex vivo; 159441 evts in the dimer- CD4+ gate.
Assay [12] shares this target. In words: flow cytometry ex vivo; 82428 evts in the dimer- CD4+ gate.

“Control (DQ6^L114W/V143M+3reps dimer) (peptide-MHC)” registered a % dimer+ CD4+ cells in [1] of 0.1%.
Regarding “DR1 dextramer (PE), Flu-HA306-318 (peptide-MHC)”, the percent multimer-positive CD4+ cells (number at the gate) in assay [2] was found to be 30.4%.
For “DP4^L112W/V141M dimer loaded with respiratory syncytial virus glycoprotein162-175 (RSV-GP162-175) (peptide-MHC)”, the events in the dimer+ CD4+ gate in [3] worked out at 37 evts; in assay [4], 10 evts; in [5], 1 evts; in assay [6], 25 evts; in assay [7], 4 evts.
For the substance “DP4^L112W/V141M dimer loaded with herpes simplex virus type-2-UL21283-302 (HSV-2-UL21283-302) (peptide-MHC)”, the events in the dimer+ CD4+ gate in assay [8] is 6 evts; in [9] it was 1 evts; in assay [10], 8 evts; in assay [11], 1 evts; in assay [12], 1 evts.
